# Data reported in patent publication US7354588B1, “Functional derivatives of ICAM-1 with altered ability to bind LFA-1 or HRV” (Dana Farber Cancer Institute, priority 1987, dated 2008).
# Positions count from the first letter of the chain named. Names may count otherwise.
# B1: Q1T/KA: ICAM-1 substitution mutant, Q1T to KA (protein, UniProt P05362 28-532, looked up, variant Q1K T2A)
# Intercellular adhesion …: KASVSPSKVILPRGGSVLVTCSTSCDQPKLLGIETPLPKKELLLPGNNRKVYELSNVQEDSQPMCYSNCPDGQSTAKTFLTVYWTPERVELAPLPSWQPVGKNLTLRCQVEGGAPRANLTVVLLRGEKELKREPAVGEPAEVTTTVLVRRDHHGANFSCRTELDLRPQGLELFENTSAPYQLQTFVLPATPPQLVSPRVLEVDTQGTVVCSLDGLFPVSEAQVHLALGDQRLNPTVTYGNDSFSAKASVSVTAEDEGTQRLTCAVILGNQSQETLQTVTIYSFPAPNVILTKPEVSEGTEVTVKCEAHPRAKVTLNGVPAQPLGPRAQLLLKATPEDNGRSFSCSATLEVAGQLIHKNQTRELRVLYGPRLDERDCPGNWTWPENSQQTPMCQAWGNPLPELKCLKDGTFPLPIGESVTVTRDLEGTYLCRARSTQGEVTRKVTVNVLSPRYEIVIITVVAAAVIMGTAGLSTYLYNRQRKIKKYRLQQAQKGTPMKPNTQATPP
# B2: K39KE/ERQ: ICAM-1 substitution mutant, K39KE to ERQ (protein, UniProt P05362 28-532, looked up, variant K39E K40R E41Q)
# Intercellular adhesion …: B1 Intercellular adhesion … with K1Q, A2T, K39E, K40R, E41Q
# B3: R49KV/EKL: ICAM-1 substitution mutant, R49KV to EKL (protein, UniProt P05362 28-532, looked up, variant R49E V51L)
# Intercellular adhesion …: B1 Intercellular adhesion … with K1Q, A2T, R49E, V51L
# B4: D71/N: ICAM-1 substitution mutant, D71 to N (protein, UniProt P05362 28-532, looked up, variant D71N)
# Intercellular adhesion …: B1 Intercellular adhesion … with K1Q, A2T, D71N
# B5: G46NN/ASI: ICAM-1 substitution mutant, G46NN to ASI (protein, UniProt P05362 28-532, looked up, variant G46A N47S N48I)
# Intercellular adhesion …: B1 Intercellular adhesion … with K1Q, A2T, G46A, N47S, N48I
# B6: S3VS/AGL (protein, UniProt P05362 28-532, looked up, variant S3A V4G S5L)
# Intercellular adhesion …: B1 Intercellular adhesion … with K1Q, A2T, S3A, V4G, S5L
# B7: Q58EDS/AKDI (protein, UniProt P05362 28-532, looked up, variant Q58A E59K S61I)
# Intercellular adhesion …: B1 Intercellular adhesion … with K1Q, A2T, Q58A, E59K, S61I
# B8: Q62PM/API (protein, UniProt P05362 28-532, looked up, variant Q62A M64I)
# Intercellular adhesion …: B1 Intercellular adhesion … with K1Q, A2T, Q62A, M64I
# B9: D71GQS/NGEL (protein, UniProt P05362 28-532, looked up, variant D71N Q73E S74L)
# Intercellular adhesion …: B1 Intercellular adhesion … with K1Q, A2T, D71N, Q73E, S74L
# B10: E111GGA/KAGS (protein, UniProt P05362 28-532, looked up, variant E111K G112A A114S)
# Intercellular adhesion …: B1 Intercellular adhesion … with K1Q, A2T, E111K, G112A, A114S
# B11: V136GE/GVK (protein, UniProt P05362 28-532, looked up, variant V136G G137V E138K)
# Intercellular adhesion …: B1 Intercellular adhesion … with K1Q, A2T, V136G, G137V, E138K
# B12: R149RD/EEG (protein, UniProt P05362 28-532, looked up, variant R149E R150E D151G)
# Intercellular adhesion …: B1 Intercellular adhesion … with K1Q, A2T, R149E, R150E, D151G
# B13: H152HGA/EEGS (protein, UniProt P05362 28-532, looked up, variant H152E H153E A155S)
# Intercellular adhesion …: B1 Intercellular adhesion … with K1Q, A2T, H152E, H153E, A155S
# B14: R166PQ/EPA (protein, UniProt P05362 28-532, looked up, variant R166E Q168A)
# Intercellular adhesion …: B1 Intercellular adhesion … with K1Q, A2T, R166E, Q168A
# B15: N175TSA/QTLG (protein, UniProt P05362 28-532, looked up, variant N175Q S177L A178G)
# Intercellular adhesion …: B1 Intercellular adhesion … with K1Q, A2T, N175Q, S177L, A178G
# B16: D203TQ/TAD (protein, UniProt P05362 28-532, looked up, variant D203T T204A Q205D)
# Intercellular adhesion …: B1 Intercellular adhesion … with K1Q, A2T, D203T, T204A, Q205D
# B17: D213GL/HGV (protein, UniProt P05362 28-532, looked up, variant D213H L215V)
# Intercellular adhesion …: B1 Intercellular adhesion … with K1Q, A2T, D213H, L215V
# B18: D229QR/HLE (protein, UniProt P05362 28-532, looked up, variant D229H Q230L R231E)
# Intercellular adhesion …: B1 Intercellular adhesion … with K1Q, A2T, D229H, Q230L, R231E
# Biological target: T1, LFA-1 (Homo sapiens, UniProt P05107+P20701)
# T1 construct: endogenous in cells
# Experiment: Adherence of COS cells expressing ICAM-1 or ICAM-1 mutants to plastic-bound purified LFA-1
# Type: cell-based
# Conditions: COS cells expressing ICAM-1 mutant adhering to LFA-1 coated plastic; normalized for percent of cells expressing mutant and for wild type binding; mean
# T1 sequence (P20701 26-1170): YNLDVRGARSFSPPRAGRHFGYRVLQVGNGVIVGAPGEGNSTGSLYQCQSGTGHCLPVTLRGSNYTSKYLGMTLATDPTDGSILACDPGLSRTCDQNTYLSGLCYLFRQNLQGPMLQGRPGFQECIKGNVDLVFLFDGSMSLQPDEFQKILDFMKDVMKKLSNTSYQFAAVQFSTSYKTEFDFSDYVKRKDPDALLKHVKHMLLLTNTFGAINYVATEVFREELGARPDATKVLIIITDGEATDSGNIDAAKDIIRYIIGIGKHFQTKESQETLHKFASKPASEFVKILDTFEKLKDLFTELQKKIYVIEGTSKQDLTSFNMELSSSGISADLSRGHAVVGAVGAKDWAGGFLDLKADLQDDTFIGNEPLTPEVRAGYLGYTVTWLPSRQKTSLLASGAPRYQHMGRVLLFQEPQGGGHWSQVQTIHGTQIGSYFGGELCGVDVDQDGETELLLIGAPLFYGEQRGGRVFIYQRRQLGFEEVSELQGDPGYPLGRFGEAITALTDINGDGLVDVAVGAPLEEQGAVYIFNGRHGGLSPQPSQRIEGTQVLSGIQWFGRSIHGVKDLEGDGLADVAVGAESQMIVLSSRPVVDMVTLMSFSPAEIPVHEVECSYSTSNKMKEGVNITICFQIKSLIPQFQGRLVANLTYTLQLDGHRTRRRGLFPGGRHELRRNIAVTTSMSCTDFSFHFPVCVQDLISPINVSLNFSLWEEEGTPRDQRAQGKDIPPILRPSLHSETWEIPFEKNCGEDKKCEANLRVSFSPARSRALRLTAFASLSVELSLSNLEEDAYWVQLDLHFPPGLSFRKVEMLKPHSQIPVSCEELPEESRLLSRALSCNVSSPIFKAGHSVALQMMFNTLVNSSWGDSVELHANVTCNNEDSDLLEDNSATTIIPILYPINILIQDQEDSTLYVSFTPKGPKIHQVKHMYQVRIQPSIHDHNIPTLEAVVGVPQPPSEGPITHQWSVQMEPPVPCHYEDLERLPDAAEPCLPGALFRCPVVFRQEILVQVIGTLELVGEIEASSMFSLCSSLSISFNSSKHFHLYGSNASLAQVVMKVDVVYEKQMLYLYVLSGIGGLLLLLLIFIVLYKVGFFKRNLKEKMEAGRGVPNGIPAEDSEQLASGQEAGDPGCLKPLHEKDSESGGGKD
# T1 sequence (P05107 23-769): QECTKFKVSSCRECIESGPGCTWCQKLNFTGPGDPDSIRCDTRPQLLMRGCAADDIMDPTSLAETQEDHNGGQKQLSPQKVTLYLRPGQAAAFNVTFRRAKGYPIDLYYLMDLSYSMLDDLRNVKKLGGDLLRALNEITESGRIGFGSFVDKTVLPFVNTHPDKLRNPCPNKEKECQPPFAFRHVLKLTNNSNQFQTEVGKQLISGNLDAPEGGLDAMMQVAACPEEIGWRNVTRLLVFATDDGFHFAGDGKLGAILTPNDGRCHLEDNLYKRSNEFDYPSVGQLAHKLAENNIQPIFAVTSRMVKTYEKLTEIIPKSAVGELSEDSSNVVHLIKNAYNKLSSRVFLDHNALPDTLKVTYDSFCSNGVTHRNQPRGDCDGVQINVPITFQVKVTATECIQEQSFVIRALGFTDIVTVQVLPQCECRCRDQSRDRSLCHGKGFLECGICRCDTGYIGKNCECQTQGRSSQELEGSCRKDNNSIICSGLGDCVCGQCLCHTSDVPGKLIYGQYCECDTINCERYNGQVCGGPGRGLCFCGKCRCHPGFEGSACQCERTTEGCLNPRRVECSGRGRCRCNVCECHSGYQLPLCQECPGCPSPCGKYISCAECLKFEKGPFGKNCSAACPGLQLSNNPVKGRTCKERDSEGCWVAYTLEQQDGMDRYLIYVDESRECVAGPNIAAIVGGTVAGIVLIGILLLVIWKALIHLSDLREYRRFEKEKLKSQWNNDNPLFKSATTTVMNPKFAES
row,Molecule,LFA-1 Binding % [%]
1,B1,119
2,B2,99
3,B3,123
4,B4,79
5,B5,49
6,B6,18
7,B7,3
8,B8,104
9,B9,1
10,B10,103
11,B11,92
12,B12,81
13,B13,85
14,B14,75
15,B15,26
16,B16,91
17,B17,90
18,B18,90

# System: HRV14
# Experiment: Binding of [^35S]-Met labeled HRV14 to COS cells expressing ICAM-1 mutants
# Type: cell-based, human rhinovirus 14
# Conditions: 35S met-labeled HRV14 binding to COS cells expressing ICAM-1 mutant; normalized for percent of cells expressing mutant and for wild type binding; mean
row,Molecule,HRV Binding % [%]
1,B1,11
2,B2,61
3,B3,49
4,B4,62
5,B5,9
6,B6,61
7,B7,0
8,B8,182
9,B9,21
10,B10,162
11,B11,117
12,B12,139
13,B13,82
14,B14,25
15,B15,40
16,B16,111
17,B17,99
18,B18,106

# Same assay, conditions: COS cells expressing the mutant, relative to wild type
row,Molecule,decrease in HRV14 binding
1,B1,ten-fold
2,B2,two-fold
3,B3,two-fold
4,B4,two-fold
5,B5,ten-fold

# System: CL203 mAb
# Experiment: Indirect immunofluorescence flow cytofluorometry: mAb CL203 binding to COS cells expressing ICAM-1 mutants (SLFI, % WT)
# Type: cell-based
# Conditions: SLFI of CL203 for mutant normalized to wild type CL203 SLFI; level of expression
# Method: (§1) For HRV binding studies, COS cells were reseeded in a 24 well plate. One day later, the confluent monolayer was washed twice with 1 ml of RPMI 1640/10 mM MgCl2/25 mM Hepes pH 7.3 (rhinovirus-14 buffer). Transfected COS cells were labeled with 51Cr for binding to LFA-1 coated plastic as previously described (Staunton, D. E., et al., Nature 339:61-64 (1989). Immunoprecipitation and indirect immunofluorescence was performed using ICAM-1 MAb RR1/1 (Rothlein, R., et al., J. Immunol. 137:1270-1274 (1986)), R6.5 (Rothlein, R., et al., J. Immunol. 141:1665-1669 (1988)), LB-1 (Clark, E. A., et al., Hum. Immunol. 16:100-113 (1986)) and CL203 (Maio, M., J. Immunol. 143:181-188 (1989), all of which references are incorporated herein by reference).
# (§2) Binding of RR1, R6.5, and LB-2 mAb was normalized to binding of CL203 mAb using Specific Linear Fluorescence Intensity (SLFI): % CL203=(mAbSLFI)×100)/CL203mABSLFI
# (§3) In Table 25, the notation for the mutations uses the one-letter code for the wild-type sequence followed by a slash and the one-letter code for the corresponding mutant sequence. The position of the first amino acid within the sequence is indicated. Wild type residues precede the slash followed by the residues they were substituted for in the mutant. COS cells expressing ICAM-1 mutants were tested for adherence to LFA-1 coated plastic and for binding 35S met-labeled HRV14. LFA-1 and HRV14 binding is normalized for percent of cells expressing mutant ICAM-1 and for binding of wild type expressing cells. Binding is presented as mean and standard error (SE) for multiple experiments (n). Effects of two-fold or greater were reproducible in LFA-1, HRV and mAb binding assays and thus considered significant (bold and underlined). The specific linear fluorescence intensity (SLFI) of CL203 for each mutant is normalized to that of wild type CL203 SLFI (% WT) as discussed above. The SLFI of RR1/1, R6.5 and LB-2 SLFI is normalized to the CL203 SLFI of the mutant (% CL203) as described above.
row,Molecule,Cl203 % WT (SLFI) [% WT]
1,B1,230
2,B2,84
3,B3,233
4,B4,109
5,B5,151
6,B6,121
7,B7,98
8,B8,200
9,B9,161
10,B10,122
11,B11,171
12,B12,159
13,B13,94
14,B14,94
15,B15,75
16,B16,125
17,B17,128
18,B18,210

# System: RR1/1 mAb
# Experiment: Indirect immunofluorescence flow cytofluorometry: mAb RR1/1 binding to COS cells expressing ICAM-1 mutants (SLFI, % CL203)
# Type: cell-based
# Conditions: SLFI normalized to CL203 SLFI of the mutant
# Method: as §1, §2, §3
row,Molecule,SLFI (% CL203) RR/1 [% CL203]
1,B1,94
2,B2,47
3,B3,103
4,B4,44
5,B5,140
6,B6,5
7,B7,10
8,B8,59
9,B9,0
10,B10,81
11,B11,220
12,B12,166
13,B13,103
14,B14,100
15,B15,19
16,B16,178
17,B17,231
18,B18,94

# System: R6.5 mAb
# Experiment: Indirect immunofluorescence flow cytofluorometry: mAb R6.5 binding to COS cells expressing ICAM-1 mutants (SLFI, % CL203)
# Type: cell-based
# Conditions: SLFI normalized to CL203 SLFI of the mutant
# Method: as §1, §2, §3
row,Molecule,SLFI (% CL203) R6.5 [% CL203]
1,B1,115
2,B2,93
3,B3,97
4,B4,94
5,B5,107
6,B6,31
7,B7,22
8,B8,81
9,B9,48
10,B10,0
11,B11,172
12,B12,189
13,B13,94
14,B14,109
15,B15,50
16,B16,116
17,B17,175
18,B18,92

# System: LB-2 mAb
# Experiment: Indirect immunofluorescence flow cytofluorometry: mAb LB-2 binding to COS cells expressing ICAM-1 mutants (SLFI, % CL203)
# Type: cell-based
# Conditions: SLFI normalized to CL203 SLFI of the mutant
# Method: as §1, §2, §3
row,Molecule,SLFI (% CL203) LB-2 [% CL203]
1,B1,113
2,B2,87
3,B3,52
4,B4,83
5,B5,113
6,B6,9
7,B7,7
8,B8,73
9,B9,26
10,B10,89
11,B11,138
12,B12,166
13,B13,112
14,B14,64
15,B15,44
16,B16,86
17,B17,107
18,B18,100
